In PMC1888729, “Control of Pre-mRNA Splicing by the General Splicing Factors PUF60 and U2AF65”:

What was measured:
U2AF65 (in U2AF65/35 …) = target: U2AF65 (in U2AF65/35 heterodimer);U2AF35 (in U2AF65/35 heterodimer) (Homo sapiens;Homo sapiens, UniProt P26368;Q01081 1-475;1-240, |); test: EMSA; U2AF65/35 alone; 25 mM Tris pH 7.5, 25 mM NaCl, 1 mM EDTA, 0.1 mg/ml tRNA, 0.5 mg/ml BSA, ~0.2 nM RNA, 60 min room temperature (6% native gel in cold room); footprints same plus 1 U/ml RNasin, 30 min, then 2.6 mg/ml tRNA with RNase 5 min; conditions: protein: recombinant;recombinant; tags: ;; copies: 1;1; label: 32P; single strand
[1] = target: T1, PUF60 (short isoform PUF60S, HEK-293E-derived) (Homo sapiens, UniProt Q9UHX1-2 1-542); test: EMSA; with U2AF65/35; PUF60 binding enhanced, U2AF:RNA complex decreases; 25 mM Tris pH 7.5, 25 mM NaCl, 1 mM EDTA, 0.1 mg/ml tRNA, 0.5 mg/ml BSA, ~0.2 nM RNA, 60 min room temperature (6% native gel in cold room); footprints same plus 1 U/ml RNasin, 30 min, then 2.6 mg/ml tRNA with RNase 5 min; conditions: protein: recombinant; label: 32P; single strand
[2] = target: T1, PUF60 (short isoform PUF60S, …); test: EMSA; PUF60 alone; 25 mM Tris pH 7.5, 25 mM NaCl, 1 mM EDTA, 0.1 mg/ml tRNA, 0.5 mg/ml BSA, ~0.2 nM RNA, 60 min room temperature (6% native gel in cold room); footprints same plus 1 U/ml RNasin, 30 min, then 2.6 mg/ml tRNA with RNase 5 min; conditions: protein: recombinant; label: 32P; single strand

Measured: binding result

T1 sequence (Q9UHX1 other isoform, or with tags, fused parts or gaps): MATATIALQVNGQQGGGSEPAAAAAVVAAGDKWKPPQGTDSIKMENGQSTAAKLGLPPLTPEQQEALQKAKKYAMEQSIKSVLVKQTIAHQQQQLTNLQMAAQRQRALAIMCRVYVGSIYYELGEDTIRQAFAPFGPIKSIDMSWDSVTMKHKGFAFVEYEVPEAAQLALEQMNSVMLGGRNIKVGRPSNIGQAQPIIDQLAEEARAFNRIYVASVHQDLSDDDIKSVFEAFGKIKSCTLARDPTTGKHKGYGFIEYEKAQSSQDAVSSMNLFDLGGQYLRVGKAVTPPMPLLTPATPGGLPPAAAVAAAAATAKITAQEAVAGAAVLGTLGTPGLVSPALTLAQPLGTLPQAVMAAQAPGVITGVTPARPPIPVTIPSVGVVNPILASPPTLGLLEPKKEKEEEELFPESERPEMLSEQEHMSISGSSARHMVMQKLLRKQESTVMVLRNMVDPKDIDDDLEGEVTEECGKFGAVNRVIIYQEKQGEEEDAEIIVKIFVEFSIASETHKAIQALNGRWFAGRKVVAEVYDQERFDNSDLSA
Chain of U2AF65 (in U2AF65/35 heterodimer);U2AF35 (in U2AF65/35 heterodimer) (P26368 whole entry, chain 1 of 2, canonical isoform): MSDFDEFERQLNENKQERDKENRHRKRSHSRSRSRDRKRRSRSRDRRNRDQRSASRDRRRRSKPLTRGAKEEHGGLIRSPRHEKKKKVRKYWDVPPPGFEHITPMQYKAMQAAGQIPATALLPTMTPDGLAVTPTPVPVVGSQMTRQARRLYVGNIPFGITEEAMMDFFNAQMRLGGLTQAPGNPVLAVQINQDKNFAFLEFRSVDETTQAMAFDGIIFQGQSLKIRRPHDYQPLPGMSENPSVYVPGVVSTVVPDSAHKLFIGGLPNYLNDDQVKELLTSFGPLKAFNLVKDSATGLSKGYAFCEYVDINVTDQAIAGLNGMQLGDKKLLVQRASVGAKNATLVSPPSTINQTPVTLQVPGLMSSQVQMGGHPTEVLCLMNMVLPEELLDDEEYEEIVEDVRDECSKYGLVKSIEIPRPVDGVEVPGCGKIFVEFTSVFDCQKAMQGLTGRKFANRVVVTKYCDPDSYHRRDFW
Chain of U2AF65 (in U2AF65/35 heterodimer);U2AF35 (in U2AF65/35 heterodimer) (Q01081 whole entry, chain 2 of 2, canonical isoform): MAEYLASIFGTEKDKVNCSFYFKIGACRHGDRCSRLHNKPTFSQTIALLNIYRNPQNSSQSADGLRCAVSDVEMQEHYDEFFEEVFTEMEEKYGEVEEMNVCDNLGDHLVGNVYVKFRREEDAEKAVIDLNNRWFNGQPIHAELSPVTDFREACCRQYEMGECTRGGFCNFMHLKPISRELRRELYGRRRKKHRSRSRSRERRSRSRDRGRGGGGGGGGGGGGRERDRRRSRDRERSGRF

UUCGUGCUGACCCUGUCCCUUUUUUUUCCACAGC (ssRNA) [AdML 3' splice-site RNA, 34 nt]
binds: all assays above
